{"source": "patent US20250255972A1", "about": "“METHOD OF TREATING UVEITIS WITH MULTIVALENT PROTEIN-HYALURONIC ACID POLYMER CONJUGATE” (Valitor, Inc., priority 2022, published 2025)", "molecules": {"B1": {"name": "(SEQ ID NO:149)+HyA conjugate #12, valency 99 (other)", "VHH": "QVQLVESGGGLVQPGGSLRLSCAASGGTFSSIIMAWFRQAPGKEREFVGAVSWSGGTTVYADSVKGRFTISRDNSKNTVYLQMNSLRPEDTAVYYCAARPYQKYNWASASYNVWGQGTLVTVSSAEAAAKEAAAKEAAAKAGC", "modifications": "C-terminal cysteine thiol of the aH peptide linker joined through the MP2H organic linker to hyaluronic acid"}, "B2": {"name": "Conjugate #6: (SEQ ID NO:104, anti-TNFα 3MUT VHH (mouse)-aH)+HyA (850 kDa) conjugate, MP2H linker, valency 51 (conjugate)", "VHH": "QVQLQESGGGLVQAGGSLRLSCAASGGTFSSIIMAWFRQAPGKEREFVGAVSWSGGTTVYADSVKGRFTISRDSARKSVYLQMNSLKPEDTAVYYCAARPYQKYNWASASYNVWGQGTQVTVSSAEAAAKEAAAKEAAAKAGC", "modifications": "hyaluronic acid 850 kDa conjugate via MP2H linker; anti-TNFalpha 3MUT VHH (mouse)- aH"}, "B3": {"name": "Conjugate #12: (SEQ ID NO:149, Hu aTNFα 3MUT aH_CYS)+hyaluronic acid conjugate, MP2H linker, valency 99 (conjugate)", "VHH": "QVQLVESGGGLVQPGGSLRLSCAASGGTFSSIIMAWFRQAPGKEREFVGAVSWSGGTTVYADSVKGRFTISRDNSKNTVYLQMNSLRPEDTAVYYCAARPYQKYNWASASYNVWGQGTLVTVSSAEAAAKEAAAKEAAAKAGC", "modifications": "hyaluronic acid conjugate, MP2H linker; Hu_aTNFaMu_3MUT aH_CYS"}, "B4": {"name": "Conjugate #13: (SEQ ID NO:150, Hu aTNFα 5MUT aH_CYS)+hyaluronic acid conjugate, MP2H linker, valency 102 (conjugate)", "VHH": "QVQLVESGGGLVQPGGSLRLSCAASGGTFSSIIMAWFRQAPGKEREFVAAISWSGGTTVYADSVKGRFTISRDNSKNTVYLQMNSLRPEDTAVYYCAARPYQKYNWASASYNVWGQGTLVTVSSAEAAAKEAAAKEAAAKAGC", "modifications": "hyaluronic acid conjugate, MP2H linker; Hu_aTNFaMu_5MUT aH_CYS"}, "B5": {"name": "Conjugate #10: (SEQ ID NO:104, anti-TNFα 3MUT VHH (mouse)-aH)+HyA (850 kDa) conjugate, MP2H linker, valency 96.5 (conjugate)", "VHH": "QVQLQESGGGLVQAGGSLRLSCAASGGTFSSIIMAWFRQAPGKEREFVGAVSWSGGTTVYADSVKGRFTISRDSARKSVYLQMNSLKPEDTAVYYCAARPYQKYNWASASYNVWGQGTQVTVSSAEAAAKEAAAKEAAAKAGC", "modifications": "hyaluronic acid 850 kDa conjugate, MP2H linker; anti-TNFalpha 3MUT VHH (mouse)- aH"}, "B6": {"name": "(SEQ ID NO:150)+HyA conjugate #13, valency 102 (other)", "VHH": "QVQLVESGGGLVQPGGSLRLSCAASGGTFSSIIMAWFRQAPGKEREFVAAISWSGGTTVYADSVKGRFTISRDNSKNTVYLQMNSLRPEDTAVYYCAARPYQKYNWASASYNVWGQGTLVTVSSAEAAAKEAAAKEAAAKAGC", "modifications": "C-terminal cysteine thiol of the aH peptide linker joined through the MP2H organic linker to hyaluronic acid", "notes": "also called Conjugate ID 13"}, "B7": {"name": "Conjugate #5: (SEQ ID NO:103, anti-TNFα VHH (mouse)-aH)+HyA (850 kDa) conjugate, MP2H linker, valency 121 (conjugate)", "VHH": "QVQLQDSGGGLVQAGGSLRLSCAASGGTFSSIIMAWFRQAPGKEREFVGAVSWSGGTTVYADSVLGRFEISRDSARKSVYLQMNSLKFPEDTAVYYCAARPYQKYNWASASYNVWGQGTQVTVSSAEAAAKEAAAKEAAAKAGC", "modifications": "hyaluronic acid 850 kDa conjugate via MP2H linker; anti-TNFalpha VHH (mouse)- aH"}}, "key": {"[1]": {"system": "experimental autoimmune uveoretinitis (EAU) in rats", "experiment": "Second rat EAU model, clinical score by slit lamp, Example 9", "assay_type": "in vivo, Male Lewis rats", "details": "FIG. 7A, ITV, triamcinolone (40 μg) or conjugate #10 (19 μg), one day after ITV treatment, vs vehicle", "experimental": "(§1) The efficacy of conjugate #10 was validated to provide a treatment effect that can sufficiently reduce the symptoms of uveitis. Male Lewis rats were divided into 4 groups (n=12 for EAU induced groups and n=8 for uninduced control) and randomized by weight. The groups received either conjugate #10 at 19 μg, triamcinolone (40 μg), or vehicle control. On Day 1, rats in the induced groups were immunized by a subcutaneous injection in each flank with 25 μg of interphotoreceptor retinoid-binding protein (IRBP) peptide R16 in 0.1 mL of complete Freund's adjuvant for 50 μg total. On days 4 and 8, rat eyes were treated bilaterally with a 5 μL intravitreal (ITV) injection of conjugate #10 or vehicle control, or 1 μL ITV injection of triamcinolone based on their assigned treatment. Prior to the start of the study and on days 3, 6, 10, 12 and 14, ocular inflammation was accessed by slit lamp microscopy and assigned a clinical EAU score of 0-4 based on the appearance of inflammation."}, "[2]": {"system": "pro-inflammatory cytokines and inflammatory regulators in rat vitreous", "experiment": "Cytokine analysis of rat vitreous 14 days after uveitis induction (Milliplex bead panel)", "assay_type": "in vivo, Male Lewis rats", "details": "rat eyes 14 days after uveitis induction; ITV triamcinolone 40 μg or conjugate #10 19 μg", "experimental": "as §1\nOn day 14, animals were euthanized and one eye from each animal was dissected into vitreous and aqueous humor to perform for cytokine analysis. After dissection the aqueous humor from each group was pooled and all tissues were flash frozen. A milliplex Rat Cytokine/Chemokine magnetic bead panel (Millipore Cat #RECYMAG65K27PMX) was used to assess the relative cytokine concentrations in the tissues according to the manufacturer's protocol. Briefly, the ocular tissues were thawed on ice and the sample volume was measured. Then, assay buffer was added to the samples to achieve a final volume of 55 μL for duplicate readings and mixed well. Next, 25 μL of samples, standards or controls was added to the assay plate, mixed with 25 μL of beads and incubated at room temperature for 2 hours. The wells were washed on a magnetic plate washer and incubated with 25 μL of detection antibodies for one hour and then 25 μL of Streptavadin-Phycoerythrin for 30 minutes. Wells were washed on a magnetic plate washer and 125 μL of Sheath Fluid Plus was added per well and then read on the Luminex. The amount of cytokine recovered from each sample was normalized to the volume of tissue recovered and plotted."}, "[3]": {"target": "T1, Human TNFα, Avi and His tagged (Acro Biosystems TNA-H82E3) (human, UniProt P01375 77-233)", "T1 construct": "Bought BLI ligand, loaded on streptavidin probes through the Avi tag; also called BLI ligand", "T1 sequence (P01375 77-233 limits assumed)": "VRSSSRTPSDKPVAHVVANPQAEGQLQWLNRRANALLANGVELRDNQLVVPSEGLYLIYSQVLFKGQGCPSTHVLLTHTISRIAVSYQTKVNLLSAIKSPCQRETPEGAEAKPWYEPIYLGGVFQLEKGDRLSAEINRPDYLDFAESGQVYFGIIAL", "experiment": "BLI (Gator), Avi-tagged TNFα on streptavidin probes, conjugate as analyte, 1:1 global fit"}, "[4]": {"target": "T2, Human TNFα (Homo sapiens, UniProt P01375)", "T2 construct": "Avi; His; purchased Acro Biosystems TNA-H82E3", "T2 sequence (P01375 77-233 limits assumed)": "as above", "experiment": "Biolayer interferometry (BLI) binding kinetics, Human TNFα ligand", "details": "purified conjugate"}, "[5]": {"experiment": "Hydrodynamic radius by dynamic light scattering (DLS)", "assay_type": "physicochemical", "details": "25° C."}, "[6]": {"experiment": "Long-term 37° C. stability in vitreous mimetic buffer, radius by DLS", "assay_type": "physicochemical", "details": "FIG. 4C; after 35 days at 37° C. in vitreous mimetic buffer", "experimental": "(§2) We then used the top performers from the thermal stability experiments in a long-term 37° C. stability studies. The MVPs were synthesized under sterile conditions and diluted to around 0.4 mg/mL in a sterile filtered human vitreous mimetic buffer (see Table 10) or remained in formulation buffer. The samples were either filtered using sterile 0.2 or 5 μm spin filters before use or mixed with 0.010% sodium azide as an anti-microbial agent. Then, several 100-150 μL aliquots of each sample were added to wells of a sterile 96 well plate with one day 0 aliquot reserved at 4° C. The remaining wells were filled with a sterile filtered human vitreous buffer+0.01% sodium azide to minimize evaporation. The plate was incubated in a standard tissue culture incubator at 37° C. with 5% CO2. At discrete timepoints, one aliquot from each sample was removed from the plate under sterile conditions and analyzed. […] Then, the protein concentration was measured to adjust for any differences in volume that may have occurred. […] To monitor changes in radius over time, the samples were spun for 5 minutes at 5000 g to remove any large aggregates or dust particles and the Rh was measured using DLS methods described above except that the instrument is at 37° C. and without any sample dilution."}, "[7]": {"system": "TNFα", "experiment": "Long-term 37° C. stability, change in Kon by BLI", "assay_type": "physicochemical", "details": "FIG. 4B", "experimental": "as §2"}}, "note": "Entries after “also recorded” stand apart in the source; their conditions may differ."}
{"molecule": "C[C@]12C=CC(=O)C=C1CC[C@H]1[C@@H]3C[C@@H](O)[C@](O)(C(=O)CO)[C@@]3(C)C[C@H](O)[C@@]12F", "note": "[Triamcinolone, triamcinolone, reference compound]", "values": [{"measurement": "Average inflammation score (clinical EAU score, 0=none to 4=severe)", "setting": "[1]", "value": "decreased inflammation compared to the vehicle control"}, {"measurement": "IFNγ concentration in the vitreous ± SD", "setting": "[2]", "value": "2.540 ± 1.804", "unit": "ng/mL"}, {"measurement": "IL-1α concentration in the vitreous ± SD", "setting": "[2]", "value": "1.321 ± 0.844", "unit": "ng/mL"}, {"measurement": "IL-1β concentration in the vitreous ± SD", "setting": "[2]", "value": "0.721 ± 0.445", "unit": "ng/mL"}, {"measurement": "IL-6 concentration in the vitreous ± SD", "setting": "[2]", "value": "19.936 ± 17.156", "unit": "ng/mL"}, {"measurement": "MCP-1 concentration in the vitreous ± SD", "setting": "[2]", "value": "2.705 ± 2.640", "unit": "ng/mL"}, {"measurement": "TNFα concentration in the vitreous ± SD", "setting": "[2]", "value": "0.046 ± 0.051", "unit": "ng/mL"}]}
{"molecule": "B1", "values": [{"measurement": "Kd", "setting": "[3]", "value": "≤ 1", "unit": "pM"}]}
{"molecule": "B2", "values": [{"measurement": "Kd", "setting": "[4]", "value": "≤ 0.001", "unit": "nM"}, {"measurement": "Rh (nm, DLS)", "setting": "[5]", "value": 76.8, "unit": "nm"}, {"measurement": "conjugate size (DLS) as share of the original radius", "setting": "[6]", "value": "about 75%"}, {"measurement": "change in association constant of TNFα binding", "setting": "[7]; after 35 days at 37° C.", "value": "minimal change"}]}
{"molecule": "B3", "values": [{"measurement": "Rh (nm, DLS)", "setting": "[5]", "value": 70.12, "unit": "nm"}]}
{"molecule": "B4", "values": [{"measurement": "Rh (nm, DLS)", "setting": "[5]", "value": 71.64, "unit": "nm"}]}
{"molecule": "B5", "values": [{"measurement": "Kd", "setting": "[4]", "value": "≤ 0.001", "unit": "nM"}, {"measurement": "Rh (nm, DLS)", "setting": "[5]", "value": 99.14, "unit": "nm"}, {"measurement": "Average inflammation score (clinical EAU score, 0=none to 4=severe)", "setting": "[1]", "value": "comparable to triamcinolone; also recorded: decreased inflammation compared to the vehicle control"}, {"measurement": "IFNγ concentration in the vitreous ± SD", "setting": "[2]", "value": "3.116 ± 1.436", "unit": "ng/mL"}, {"measurement": "IL-1α concentration in the vitreous ± SD", "setting": "[2]", "value": "1.511 ± 0.709", "unit": "ng/mL"}, {"measurement": "IL-1β concentration in the vitreous ± SD", "setting": "[2]", "value": "0.667 ± 0.271", "unit": "ng/mL"}, {"measurement": "IL-6 concentration in the vitreous ± SD", "setting": "[2]", "value": "25.565 ± 15.702", "unit": "ng/mL"}, {"measurement": "MCP-1 concentration in the vitreous ± SD", "setting": "[2]", "value": "3.843 ± 2.499", "unit": "ng/mL"}, {"measurement": "TNFα concentration in the vitreous ± SD", "setting": "[2]", "value": "0.058 ± 0.038", "unit": "ng/mL"}]}
{"molecule": "B6", "values": [{"measurement": "Kd", "setting": "[3]", "value": "≤ 1", "unit": "pM"}]}
{"molecule": "B7", "values": [{"measurement": "Kd", "setting": "[4]", "value": "≤ 0.001", "unit": "nM"}, {"measurement": "change in association constant of TNFα binding", "setting": "[7]; after 5 days at 37° C.", "value": "dramatically decreased"}]}
